Data reported in patent publication US20230303698A1 (HARBOUR BIOMED SHANGHAI, published 2023).

T1: human OX40 (human, UniProt P43489 29-277)
T1 construct: whole, on cells; Expressed on CHO-K1/hu OX40 cells (GenScript, #M00561); also called CD134; TNFRSF4
T1 sequence (looked up): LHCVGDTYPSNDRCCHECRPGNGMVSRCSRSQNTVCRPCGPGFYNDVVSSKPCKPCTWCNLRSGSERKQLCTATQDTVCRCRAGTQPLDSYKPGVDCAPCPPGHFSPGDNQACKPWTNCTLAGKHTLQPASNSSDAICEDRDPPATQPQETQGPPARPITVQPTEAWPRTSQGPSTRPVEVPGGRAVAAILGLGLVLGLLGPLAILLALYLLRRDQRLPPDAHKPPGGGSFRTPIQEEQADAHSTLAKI

B1: PR003549 (bispecific antibody, human IgG1, kappa, L234A L235A)
light: DIQMTQSPSTLSASVGDRVTVTCRASQSIYIWLAWYQQKPGKAPNLLIYKASSLETGVPSRFSGSGSGTEFTLTISSLQPDDFATYYCQQYYGSSRTFGQGTKVEIKRTVAAPSVFIFPPSDEQLKSGTASVVCLLNNFYPREAKVQWKVDNALQSGNSQESVTEQDSKDSTYSLSSTLTLSKADYEKHKVYACEVTHQGLSSPVTKSFNRGEC
heavy: EVQLVESGGGLVQPGGSLRLSCAASGFTFSSYWMSWVRQAPGKGLEWVANIKQEGSEKYYVDSVKGRFTISRDNAKNSLYLQMNSLRAEDTAVYYCARDRAVAGAFDIWGQGTMVTVSSASTKGPSVFPLAPSSKSTSGGTAALGCLVKDYFPEPVTVSWNSGALTSGVHTFPAVLQSSGLYSLSSVVTVPSSSLGTQTYICNVNHKPSNTKVDKKVEPKSCDKTHTCPPCPAPEAAGGPSVFLFPPKPKDTLMISRTPEVTCVVVDVSHEDPEVKFNWYVDGVEVHNAKTKPREEQYNSTYRVVSVLTVLHQDWLNGKEYKCKVSNKALGAPIEKTISKAKGQPREPQVYTLPPSREEMTKNQVSLTCLVKGFYPSDIAVEWESNGQPENNYKTTPPVLDSDGSFFLYSKLTVDKSRWQQGNVFSCSVMHEALHNHYTQKSLSLSPGEPKSSDKTHTPPPPPRTEVQLLESGGGLVQLGGSLRLSCAASGFTFSRYAMTWVRQAPEKGLEWVSSISGSGDDTYYGDSVKGRFTISRDNSQNTVYLQMNSLRAEDTAVYFCAKEKAGTTGDYYYNVDVWGQGTTVTVSS
notes: Structure 1, IgG-VH tetravalent symmetric; PD-L1 Fab from PR000265, 4-1BB VH from PR001758; linker H1_15-RT; human IgG1 (AAG); also called PD-L1×4-1BB bispecific antibody molecule
B2: PR003789 (bispecific antibody, human IgG1, kappa, L234A L235A)
light: B1 light
heavy: EVQLVESGGGLVQPGGSLRLSCAASGFTFSSYWMSWVRQAPGKGLEWVANIKQEGSEKYYVDSVKGRFTISRDNAKNSLYLQMNSLRAEDTAVYYCARDRAVAGAFDIWGQGTMVTVSSASTKGPSVFPLAPSSKSTSGGTAALGCLVKDYFPEPVTVSWNSGALTSGVHTFPAVLQSSGLYSLSSVVTVPSSSLGTQTYICNVNHKPSNTKVDKKVEPKSCDKTHTCPPCPAPEAAGGPSVFLFPPKPKDTLMISRTPEVTCVVVDVSHEDPEVKFNWYVDGVEVHNAKTKPREEQYNSTYRVVSVLTVLHQDWLNGKEYKCKVSNKALGAPIEKTISKAKGQPREPQVYTLPPSREEMTKNQVSLTCLVKGFYPSDIAVEWESNGQPENNYKTTPPVLDSDGSFFLYSKLTVDKSRWQQGNVFSCSVMHEALHNHYTQKSLSLSPGAEPKSSDKTHTPPPPPEVQLLESGGGLVQPGGSLRLSCAASGFTFSSYAMSWVRQAPGKGLEWVSAISGRGGSTFYADSVRGRFTISRDNSKNTLYLQMNSLRAEDTAMYYCVDGTTGTTDVDYWGQGTLVTVSS
notes: Structure 1, IgG-VH; PD-L1 Fab from PR000265, OX40 VH from PR002067; linker H1_15; human IgG1 (AAG); also called PD-L1×OX40 bispecific antibody molecule
B3: PR003551 (bispecific antibody, human IgG1, kappa, L234A L235A)
light: B1 light
heavy: EVQLVESGGGLVQPGGSLRLSCAASGFTFSSYWMSWVRQAPGKGLEWVANIKQEGSEKYYVDSVKGRFTISRDNAKNSLYLQMNSLRAEDTAVYYCARDRAVAGAFDIWGQGTMVTVSSASTKGPSVFPLAPSSKSTSGGTAALGCLVKDYFPEPVTVSWNSGALTSGVHTFPAVLQSSGLYSLSSVVTVPSSSLGTQTYICNVNHKPSNTKVDKKVEPKSCDKTHTCPPCPAPEAAGGPSVFLFPPKPKDTLMISRTPEVTCVVVDVSHEDPEVKFNWYVDGVEVHNAKTKPREEQYNSTYRVVSVLTVLHQDWLNGKEYKCKVSNKALGAPIEKTISKAKGQPREPQVYTLPPSREEMTKNQVSLTCLVKGFYPSDIAVEWESNGQPENNYKTTPPVLDSDGSFFLYSKLTVDKSRWQQGNVFSCSVMHEALHNHYTQKSLSLSPGEPKSSDKTHTPPPPPRTEVQLLESGGGLVQPGGSLRLSCAASGFIFSNFAMTWVRQPPEKGLKWVSSINGSGFNTYYTDSVKGRFTISRDNSRNTLYLQMNRLTAEDTAVYFCAKEGSSETDDHYYNVDVWGQGTTVTVSS
notes: Structure 1, IgG-VH tetravalent symmetric; PD-L1 Fab from PR000265, 4-1BB VH from PR001836; linker H1_15-RT; human IgG (AAG) as printed; also called PD-L1×4-1BB bispecific antibody molecule
B4: PR002067, anti-OX40 heavy-chain antibody R1026P079E12 (antibody, human IgG1, V domains shown)
VH: EVQLLESGGGLVQPGGSLRLSCAASGFTFSSYAMSWVRQAPGKGLEWVSAISGRGGSTFYADSVRGRFTISRDNSKNTLYLQMNSLRAEDTAMYYCVDGTTGTTDVDYWGQGTLVTVSS
notes: Fully human heavy-chain antibody (HCAb), heavy chain dimer without light chains; also called anti-OX40 HCAb antibody
B5: PR004284 (bispecific antibody, human IgG1, kappa, L234A L235A)
light: DIQMTQSPSSLSASIGDRVTITCRASQSINSYLNWYQQKPGKAPKLLIYTASSLLSGVPSRFSASGSWTDFSLTISSLQPEDFATYYCQQSFSTPYTFGQGTNLEIKRTVAAPSVFIFPPSDEQLKSGTASVVCLLNNFYPREAKVQWKVDNALQSGNSQESVTEQDSKDSTYSLSSTLTLSKADYEKHKVYACEVTHQGLSSPVTKSFNRGEC
heavy: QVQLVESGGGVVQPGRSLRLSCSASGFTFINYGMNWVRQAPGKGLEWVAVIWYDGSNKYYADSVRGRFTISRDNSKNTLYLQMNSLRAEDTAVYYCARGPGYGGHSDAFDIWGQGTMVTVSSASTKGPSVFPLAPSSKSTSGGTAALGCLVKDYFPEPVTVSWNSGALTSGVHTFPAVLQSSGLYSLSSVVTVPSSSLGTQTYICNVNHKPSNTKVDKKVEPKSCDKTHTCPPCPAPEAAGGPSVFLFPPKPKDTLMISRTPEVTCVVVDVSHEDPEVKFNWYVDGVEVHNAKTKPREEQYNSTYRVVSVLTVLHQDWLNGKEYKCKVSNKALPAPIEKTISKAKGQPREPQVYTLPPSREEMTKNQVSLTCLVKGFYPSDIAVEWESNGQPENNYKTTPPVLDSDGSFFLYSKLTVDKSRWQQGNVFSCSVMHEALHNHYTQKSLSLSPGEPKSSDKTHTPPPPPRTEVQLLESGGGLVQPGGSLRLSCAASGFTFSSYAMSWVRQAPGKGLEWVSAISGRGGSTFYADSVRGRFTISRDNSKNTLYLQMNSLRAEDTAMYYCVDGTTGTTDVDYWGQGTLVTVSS
notes: Structure 1, IgG-VH; PSMA Fab from PR001331, OX40 VH from PR002067; linker H1_15-RT; human IgG1 (LALA); also called PSMA×OX40 bispecific antibody molecule
B6: PR002726, anti-CLDN18.2 monoclonal antibody 13E6F4 hIgG1 (antibody, V domains shown)
VH: EVQLLESGGGLVQPGGSLRLSCAASGFTFSSFVMSWVRQAPGKGLEWVSTISGSGRSTYYADSVKGRFTISRDNSKNTLHLQMNSLRAEDTAVYYCAKDAAAAGTKFDYWGQGTLVTVSS
VL: EIVLTQSPATLSLSPGERATLSCRASQSVSSYLAWYQQKPGQAPRLLIYDASNRATGIPARFSGSGSGTDFTLTISSLEPEDFAVYYCQQRSNWPLTFGGGTKVEIKR
notes: Parent monoclonal antibody of the CLDN18.2 end; hIgG1
B7: PR003555 (bispecific antibody, human IgG1, kappa, L234A L235A)
light: B5 light
heavy: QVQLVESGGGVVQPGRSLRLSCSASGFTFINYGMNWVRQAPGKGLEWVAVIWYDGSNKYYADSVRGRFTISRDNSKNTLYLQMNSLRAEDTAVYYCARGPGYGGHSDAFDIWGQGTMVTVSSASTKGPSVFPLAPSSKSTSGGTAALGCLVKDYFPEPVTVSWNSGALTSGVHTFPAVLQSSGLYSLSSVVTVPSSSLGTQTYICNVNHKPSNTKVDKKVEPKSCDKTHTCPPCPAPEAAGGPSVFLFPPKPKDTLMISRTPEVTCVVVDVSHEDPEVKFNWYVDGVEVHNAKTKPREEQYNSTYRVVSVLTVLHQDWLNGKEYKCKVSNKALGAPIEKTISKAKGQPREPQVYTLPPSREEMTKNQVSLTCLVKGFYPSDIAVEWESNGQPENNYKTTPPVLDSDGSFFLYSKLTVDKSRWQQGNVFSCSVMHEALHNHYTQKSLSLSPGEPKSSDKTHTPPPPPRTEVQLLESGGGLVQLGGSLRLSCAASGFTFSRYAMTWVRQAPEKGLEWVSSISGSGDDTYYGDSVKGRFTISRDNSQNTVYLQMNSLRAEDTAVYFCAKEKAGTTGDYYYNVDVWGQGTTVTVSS
notes: Structure 1, IgG-VH; PSMA Fab from PR001331, 4-1BB VH from PR001758; linker H1_15-RT; human IgG1 (AAG); also called PSMA×4-1BB bispecific antibody molecule
B8: PR003556 (bispecific antibody, human IgG1, kappa, L234A L235A)
light: B5 light
heavy: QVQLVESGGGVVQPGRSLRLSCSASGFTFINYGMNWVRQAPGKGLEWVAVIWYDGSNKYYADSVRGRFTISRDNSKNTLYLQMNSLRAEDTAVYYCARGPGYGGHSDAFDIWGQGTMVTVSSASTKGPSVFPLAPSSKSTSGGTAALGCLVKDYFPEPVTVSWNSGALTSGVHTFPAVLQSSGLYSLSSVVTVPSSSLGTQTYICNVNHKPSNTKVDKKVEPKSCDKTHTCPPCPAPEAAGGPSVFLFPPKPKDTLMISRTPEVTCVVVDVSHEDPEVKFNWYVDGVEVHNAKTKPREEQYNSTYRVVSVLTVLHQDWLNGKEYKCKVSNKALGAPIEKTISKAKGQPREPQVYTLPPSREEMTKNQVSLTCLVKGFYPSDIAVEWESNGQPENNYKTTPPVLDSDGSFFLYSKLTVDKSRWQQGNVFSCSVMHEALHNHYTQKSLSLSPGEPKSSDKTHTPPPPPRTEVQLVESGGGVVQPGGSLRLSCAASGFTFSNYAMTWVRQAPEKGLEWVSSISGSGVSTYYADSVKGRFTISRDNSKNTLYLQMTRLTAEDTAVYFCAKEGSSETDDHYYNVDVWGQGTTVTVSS
notes: Structure 1, IgG-VH; PSMA Fab from PR001331, 4-1BB VH from PR001760; linker H1_15-RT; human IgG1 (AAG); also called PSMA×4-1BB bispecific antibody molecule
B9: PR003557 (bispecific antibody, human IgG1, kappa, L234A L235A)
light: B5 light
heavy: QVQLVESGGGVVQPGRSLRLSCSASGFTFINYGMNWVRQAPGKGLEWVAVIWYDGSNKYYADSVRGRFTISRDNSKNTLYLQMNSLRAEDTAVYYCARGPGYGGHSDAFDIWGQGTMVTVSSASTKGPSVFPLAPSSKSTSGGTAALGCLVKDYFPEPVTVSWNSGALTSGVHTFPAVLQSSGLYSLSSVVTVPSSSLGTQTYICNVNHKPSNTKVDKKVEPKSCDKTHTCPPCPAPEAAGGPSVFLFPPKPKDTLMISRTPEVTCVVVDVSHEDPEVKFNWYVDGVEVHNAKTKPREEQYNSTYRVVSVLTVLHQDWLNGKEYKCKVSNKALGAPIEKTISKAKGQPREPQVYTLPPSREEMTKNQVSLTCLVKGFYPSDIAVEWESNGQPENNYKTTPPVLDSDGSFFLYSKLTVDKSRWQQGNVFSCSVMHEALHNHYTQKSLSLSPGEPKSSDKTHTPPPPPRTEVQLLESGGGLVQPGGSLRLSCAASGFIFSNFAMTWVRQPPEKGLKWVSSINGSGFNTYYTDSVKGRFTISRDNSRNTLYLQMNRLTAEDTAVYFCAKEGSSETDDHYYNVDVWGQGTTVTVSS
notes: Structure 1, IgG-VH; PSMA Fab from PR001331, 4-1BB VH from PR001836; linker H1_15-RT; human IgG (AAG) as printed; also called PSMA×4-1BB bispecific antibody molecule
B10: PR001331, anti-PSMA monoclonal antibody 2E8A1B1 hIgG1 (antibody, V domains shown)
VH: QVQLVESGGGVVQPGRSLRLSCSASGFTFINYGMNWVRQAPGKGLEWVAVIWYDGSNKYYADSVRGRFTISRDNSKNTLYLQMNSLRAEDTAVYYCARGPGYGGHSDAFDIWGQGTMVTVSS
VL: DIQMTQSPSSLSASIGDRVTITCRASQSINSYLNWYQQKPGKAPKLLIYTASSLLSGVPSRFSASGSWTDFSLTISSLQPEDFATYYCQQSFSTPYTFGQGTNLEIKR
notes: Parent monoclonal antibody of the PSMA end; hIgG1

The binders below were run against T2, human PD-L1 (human, UniProt Q9NZQ7 19-290) (assay: flow cytometry, CHO-K1/hPD-L1 cells).
T2 construct: whole, on cells; Expressed on CHO-K1/hPD-L1 cells (GenScript, M00543); also called CD274; B7-H1
T2 sequence (Q9NZQ7 19-290): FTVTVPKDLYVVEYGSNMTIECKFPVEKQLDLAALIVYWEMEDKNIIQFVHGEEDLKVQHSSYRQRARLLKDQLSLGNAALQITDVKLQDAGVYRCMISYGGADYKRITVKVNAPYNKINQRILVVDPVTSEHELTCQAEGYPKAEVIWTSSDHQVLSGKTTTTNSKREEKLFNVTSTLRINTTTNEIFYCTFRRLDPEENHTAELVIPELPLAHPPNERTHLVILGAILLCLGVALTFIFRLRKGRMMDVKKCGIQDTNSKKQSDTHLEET

Binding result, binds:
B1
B2
B3

What follows are binders tested against T1, human OX40 (assay: flow cytometry, CHO-K1/hu OX40 cells).
Protocol: The antibody binding assay at the cellular level was performed using a CHO-K1 cell line CHO-K1/hu OX40 (GenScript, #M00561) highly expressing human OX40. Briefly, the CHO-K1/hu OX40 cells were digested and resuspended in an F12K complete medium, and the cell density was adjusted to 1×10⁶ cells/mL. […] The cells were incubated at 4° C. for 1 h away from light. Thereafter, the cells in each well were rinsed twice with 100 μL of pre-cooled PBS, and centrifuged at 500 g at 4° C. for 5 min, and then the supernatant was discarded. […] The plate was incubated away from light at 4° C. for 30 min. The cells in each well were rinsed twice with 100 L of pre-cooled PBS, and centrifuged at 500 g at 4° C. for 5 min, and then the supernatant was discarded. Finally, a pre-cooled PBS was added at 200 μL/well to resuspend the cells. Fluorescence signal values were read using a BD FACS CANTOII flow cytometer or an ACEA NovoCyte flow cytometer, and the data were processed and analyzed using FlowJo v10 (FlowJo, LLC) software.

Binding result, binds:
B2
B4
B5

The binders below were run against T3, human CLDN18.2 (human) (assay: flow cytometry, NUGC-4 cells highly expressing human CLDN18.2).
T3 construct: On NUGC-4 cells highly expressing human CLDN18.2 (JCRB, JCRB0834); also called Claudin 18.2; NUGC-4 cells
Protocol: In this example, the binding ability of the binding proteins to cells highly expressing specific tumor antigens was determined by flow cytometry FACS. Briefly, a cell suspension was collected, and the cell density was adjusted to 2×10⁶ cells/mL. […] Then, binding proteins diluted in a 3-fold gradient at a total of 8 concentrations that were 2 times the final concentrations were added at 50 μL/well, and the mixture was mixed well. hIgG1 iso (CrownBio, #C0001) was used as an isotype control. The cells were incubated at 4° C. for 2 h away from light. Then, the cells in each well were then rinsed twice with 100 μL of pre-cooled PBS buffer and centrifuged at 500 g at 4° C. for 5 min, and then the supernatant was discarded. […] Then, the cells in each well were then rinsed twice with 100 μL of pre-cooled PBS buffer and centrifuged at 500 g at 4° C. for 5 min, and then the supernatant was discarded. Finally, a pre-cooled FACS buffer (PBS buffer containing 0.5% BSA) was added at 200 μL/well to resuspend the cells. Fluorescence signal values were read using an ACEA NovoCyte flow cytometer or a BD FACS CANTOII flow cytometer, and the data were processed and analyzed using FlowJo v10 (FlowJo, LLC) software.
In this example, the binding ability of the antibodies targeting CLDN18.2 to NUGC-4 cells highly expressing human CLDN18.2 (JCRB, JCRB0834) was determined.

Binding result, binds:
B6

The binders below were run against T4, human 4-1BB (human, UniProt Q07011 24-255) (assay: flow cytometry, CHO-K1/hu 4-1BB cells).
T4 construct: whole, on cells; Expressed on CHO-K1/hu 4-1BB cells (GenScript, M00538); also called CD137; TNFRSF9
T4 sequence (Q07011 24-255): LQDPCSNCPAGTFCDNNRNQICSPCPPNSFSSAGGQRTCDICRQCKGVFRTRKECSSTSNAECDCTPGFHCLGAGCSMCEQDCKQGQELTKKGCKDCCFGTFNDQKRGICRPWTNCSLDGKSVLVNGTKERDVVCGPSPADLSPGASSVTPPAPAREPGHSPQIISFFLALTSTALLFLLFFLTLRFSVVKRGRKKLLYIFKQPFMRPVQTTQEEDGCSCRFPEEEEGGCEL
Protocol: The binding ability of the binding protein to a CHO-K1 cell line CHO-K1/hu 4-1BB (GenScript, M00538) highly expressing human 4-1BB and a CHO-K1 cell line CHO-K1/cyno 4-1BB (GenScript, M00569) highly expressing cynomolgus monkey 4-1BB were determined by flow cytometry FACS. Specifically, the cells were digested and resuspended in a complete medium, and the cell density was adjusted to 2×10⁶ cells/mL. […] The cells were incubated at 4° C. for 1 h away from light. Then, the cells in each well were rinsed twice with 100 μL of pre-cooled FACS buffer (PBS buffer containing 0.5% BSA) and centrifuged at 500 g at 4° C. for 5 min, and then the supernatant was discarded. […] Then, the cells in each well were then rinsed twice with 200 μL of pre-cooled FACS buffer and centrifuged at 500 g at 4° C. for 5 min, and then the supernatant was discarded. Finally, a pre-cooled FACS buffer was added at 200 μL/well to resuspend the cells. Fluorescence signal values were read using a BD FACS CANTOII flow cytometer or an ACEA NovoCyte flow cytometer, and the data were processed and analyzed using FlowJo v10 (FlowJo, LLC) software.

Binding result, binds:
B1
B3
B7
B8
B9

What follows are binders tested against T5, human PSMA (human, UniProt Q04609 1-750) (assay: flow cytometry, LNCaP cells highly expressing human PSMA).
T5 construct: whole, on cells; On LNCaP cells highly expressing human PSMA (Nanjing Cobioer, CBP60364); also called FOLH1; glutamate carboxypeptidase 2
T5 sequence (Q04609 whole entry): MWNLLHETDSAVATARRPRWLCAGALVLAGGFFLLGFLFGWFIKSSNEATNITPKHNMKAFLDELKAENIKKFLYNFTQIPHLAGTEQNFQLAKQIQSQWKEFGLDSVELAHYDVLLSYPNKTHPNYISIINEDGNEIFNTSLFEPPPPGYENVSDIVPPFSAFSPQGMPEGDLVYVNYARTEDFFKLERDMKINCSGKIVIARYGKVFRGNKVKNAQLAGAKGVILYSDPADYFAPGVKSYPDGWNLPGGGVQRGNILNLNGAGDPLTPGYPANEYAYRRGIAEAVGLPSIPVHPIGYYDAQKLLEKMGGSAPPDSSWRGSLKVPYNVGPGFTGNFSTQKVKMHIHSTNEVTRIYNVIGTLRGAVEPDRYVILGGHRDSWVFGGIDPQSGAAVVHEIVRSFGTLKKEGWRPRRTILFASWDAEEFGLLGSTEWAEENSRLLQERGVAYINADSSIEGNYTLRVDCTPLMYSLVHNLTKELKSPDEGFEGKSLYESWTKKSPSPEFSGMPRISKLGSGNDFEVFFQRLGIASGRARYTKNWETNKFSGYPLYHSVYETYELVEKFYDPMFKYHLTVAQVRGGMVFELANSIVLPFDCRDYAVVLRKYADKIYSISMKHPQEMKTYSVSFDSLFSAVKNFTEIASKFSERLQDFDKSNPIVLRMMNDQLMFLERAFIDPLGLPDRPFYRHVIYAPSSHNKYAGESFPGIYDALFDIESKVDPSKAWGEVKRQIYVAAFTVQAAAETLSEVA

Binding result, binds:
B7
B8
B5
B9
B10
